Experimental data reported in the supplement of paper PMC9112550, “Optimization of the antimicrobial peptide Bac7 by deep mutational scanning” (BMC Biology, 2022).

test system: Escherichia coli TOP10; assay: shrunken log2 fold change of peptide-encoding DNA abundance (4.5 h post-induction vs induction); higher = less antimicrobial activity (less host growth inhibition); settings: time post-induction: 4.5 h; library: site-saturation at positions 5, 18, 19, 20
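Also: peptides expressed intracellularly from a pBAD plasmid library in pooled LB shake-flask culture, induced with 0.3% L-arabinose, DNA abundance read by NGS, three biological replicates, DESeq2 with apeglm shrinkage.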

Row | Sequence | shrunken log2 fold change
1 | RRIRDRPPRLPRPRPRPIVRPRP | -0.00112
2 | RRIRLRPPRLPRPRPRPGMMPRP | 0.0343
3 | RRIRNRPPRLPRPRPRPRYLPRP | -0.547
4 | RRIRGRPPRLPRPRPRPQQNPRP | 0.383
5 | RRIRMRPPRLPRPRPRPSYRPRP | -0.0836
6 | RRIRSRPPRLPRPRPRPLIEPRP | -0.06
7 | RRIRVRPPRLPRPRPRPWRLPRP | 0.426
8 | RRIRYRPPRLPRPRPRPQHFPRP | -0.0787
9 | RRIRHRPPRLPRPRPRPTAVPRP | -0.295
10 | RRIRFRPPRLPRPRPRPPIAPRP | 0.31
11 | RRIRFRPPRLPRPRPRPCLVPRP | -0.208
12 | RRIRQRPPRLPRPRPRPSTIPRP | -0.0567
13 | RRIRRRPPRLPRPRPRPWLIPRP | -0.319
14 | RRIRMRPPRLPRPRPRPHVHPRP | 0.0308
15 | RRIRARPPRLPRPRPRPNSDPRP | 0.0804
16 | RRIRWRPPRLPRPRPRPMILPRP | -0.14
17 | RRIRPRPPRLPRPRPRPALLPRP | 0.0603
18 | RRIRRRPPRLPRPRPRPHFFPRP | 0.149
19 | RRIRCRPPRLPRPRPRPDVWPRP | 0.198
20 | RRIRARPPRLPRPRPRPIFAPRP | 0.555
21 | RRIRQRPPRLPRPRPRPSINPRP | -0.806
22 | RRIRWRPPRLPRPRPRPRTNPRP | 0.0699
23 | RRIRPRPPRLPRPRPRPIWYPRP | -0.0201
24 | RRIRNRPPRLPRPRPRPDICPRP | 0.0866
25 | RRIRQRPPRLPRPRPRPTQLPRP | 0.375

Row | Sequence | shrunken log2 fold change
26 | RRIRVRPPRLPRPRPRPAGFPRP | 0.148
27 | RRIRARPPRLPRPRPRPIWAPRP | 0.439
28 | RRIRRRPPRLPRPRPRPKDWPRP | 0.36
29 | RRIRKRPPRLPRPRPRPPVEPRP | 0.13
30 | RRIRQRPPRLPRPRPRPPCQPRP | 0.0396
31 | RRIRARPPRLPRPRPRPCNDPRP | -0.0678
32 | RRIRKRPPRLPRPRPRPRAAPRP | 1.13
33 | RRIRRRPPRLPRPRPRPHHAPRP | -0.0424
34 | RRIRQRPPRLPRPRPRPFYCPRP | -0.314
35 | RRIRVRPPRLPRPRPRPGTFPRP | -0.867
36 | RRIRGRPPRLPRPRPRPVPEPRP | 1.98
37 | RRIRPRPPRLPRPRPRPYYGPRP | -0.271
38 | RRIRYRPPRLPRPRPRPIAEPRP | 2.73
39 | RRIRSRPPRLPRPRPRPFSCPRP | -0.0153
40 | RRIRLRPPRLPRPRPRPMLDPRP | 0.014
41 | RRIRKRPPRLPRPRPRPFGQPRP | 0.783
42 | RRIRYRPPRLPRPRPRPKYQPRP | -0.213
43 | RRIRLRPPRLPRPRPRPRFWPRP | 0.486
44 | RRIRTRPPRLPRPRPRPLDSPRP | -0.0239
45 | RRIRDRPPRLPRPRPRPCLFPRP | 0.076
46 | RRIRVRPPRLPRPRPRPLRKPRP | 0.317
47 | RRIRNRPPRLPRPRPRPYAHPRP | -0.176
48 | RRIRIRPPRLPRPRPRPNVIPRP | -0.82
49 | RRIRCRPPRLPRPRPRPAENPRP | 0.000461
50 | RRIRPRPPRLPRPRPRPSDTPRP | -0.29

Row | Sequence | shrunken log2 fold change
51 | RRIRLRPPRLPRPRPRPMYFPRP | -0.252
52 | RRIRHRPPRLPRPRPRPSSEPRP | -0.102
53 | RRIRYRPPRLPRPRPRPRNIPRP | -0.00665
54 | RRIRQRPPRLPRPRPRPCMTPRP | 0.0109
55 | RRIRTRPPRLPRPRPRPQWNPRP | -0.832
56 | RRIRVRPPRLPRPRPRPIKFPRP | 0.0613
57 | RRIRERPPRLPRPRPRPSWGPRP | -0.102
58 | RRIRERPPRLPRPRPRPAQNPRP | 0.269
59 | RRIRKRPPRLPRPRPRPNHHPRP | -0.182
60 | RRIRDRPPRLPRPRPRPFRIPRP | 0.0432
61 | RRIRSRPPRLPRPRPRPQKSPRP | -0.181
62 | RRIRLRPPRLPRPRPRPPVIPRP | -0.0477
63 | RRIRQRPPRLPRPRPRPPQLPRP | 0.424
64 | RRIRQRPPRLPRPRPRPKAHPRP | 0.0165
65 | RRIRIRPPRLPRPRPRPAYSPRP | -0.534
66 | RRIRMRPPRLPRPRPRPHYCPRP | -0.116
67 | RRIRVRPPRLPRPRPRPSVKPRP | -0.155
68 | RRIRHRPPRLPRPRPRPNIYPRP | -0.11
69 | RRIRIRPPRLPRPRPRPINRPRP | -0.312
70 | RRIRVRPPRLPRPRPRPWICPRP | -0.358
71 | RRIRPRPPRLPRPRPRPPTGPRP | 0.452
72 | RRIRQRPPRLPRPRPRPNHHPRP | -0.864
73 | RRIRDRPPRLPRPRPRPEGWPRP | 1.78
74 | RRIRTRPPRLPRPRPRPIHMPRP | -0.171
75 | RRIRMRPPRLPRPRPRPWISPRP | 0.00707

Row | Sequence | shrunken log2 fold change
76 | RRIRGRPPRLPRPRPRPYNNPRP | -0.321
77 | RRIRLRPPRLPRPRPRPIFRPRP | 0.00696
78 | RRIRMRPPRLPRPRPRPWLPPRP | -0.0332
79 | RRIRCRPPRLPRPRPRPSHCPRP | -0.393
80 | RRIRPRPPRLPRPRPRPYCRPRP | 0.0122
81 | RRIRARPPRLPRPRPRPFTHPRP | -0.113
82 | RRIRHRPPRLPRPRPRPKAQPRP | 0.0148
83 | RRIRHRPPRLPRPRPRPRHYPRP | -0.285
84 | RRIRLRPPRLPRPRPRPDVVPRP | 0.0387
85 | RRIRKRPPRLPRPRPRPLCYPRP | -0.213
86 | RRIRQRPPRLPRPRPRPFIFPRP | -0.257
87 | RRIRRRPPRLPRPRPRPFRCPRP | -0.15
88 | RRIRARPPRLPRPRPRPQGAPRP | 0.191
89 | RRIRMRPPRLPRPRPRPSILPRP | 0.0568
90 | RRIRGRPPRLPRPRPRPSMRPRP | 1.15
91 | RRIRPRPPRLPRPRPRPKFYPRP | -0.351
92 | RRIRFRPPRLPRPRPRPNKRPRP | -0.274
93 | RRIRDRPPRLPRPRPRPEWTPRP | 0.147
94 | RRIRCRPPRLPRPRPRPTDFPRP | -0.759
95 | RRIRERPPRLPRPRPRPADSPRP | -0.157
96 | RRIRDRPPRLPRPRPRPGIEPRP | 0.103
97 | RRIRARPPRLPRPRPRPMNGPRP | -0.0023
98 | RRIRFRPPRLPRPRPRPPGPPRP | 0.897
99 | RRIRRRPPRLPRPRPRPQYRPRP | -0.0575
100 | RRIRIRPPRLPRPRPRPWQSPRP | -0.0531

Row | Sequence | shrunken log2 fold change
101 | RRIRERPPRLPRPRPRPLHPPRP | 0.309
102 | RRIRGRPPRLPRPRPRPATPPRP | 1.83
103 | RRIRSRPPRLPRPRPRPTWNPRP | -0.0149
104 | RRIRQRPPRLPRPRPRPLTVPRP | 0.0325
105 | RRIRPRPPRLPRPRPRPMLSPRP | 0.0181
106 | RRIRHRPPRLPRPRPRPHNMPRP | -0.364
107 | RRIRVRPPRLPRPRPRPPECPRP | -0.186
108 | RRIRERPPRLPRPRPRPKIFPRP | 0.0686
109 | RRIRVRPPRLPRPRPRPGSRPRP | 0.177
110 | RRIRVRPPRLPRPRPRPPFVPRP | 0.0393
111 | RRIRHRPPRLPRPRPRPKESPRP | -0.069
112 | RRIRVRPPRLPRPRPRPTQEPRP | 0.124
113 | RRIRPRPPRLPRPRPRPIIWPRP | -0.0266
114 | RRIRGRPPRLPRPRPRPRRLPRP | 0.502
115 | RRIRYRPPRLPRPRPRPFRHPRP | -0.16
116 | RRIRVRPPRLPRPRPRPSQAPRP | 0.0916
117 | RRIRTRPPRLPRPRPRPSSIPRP | -0.233
118 | RRIRFRPPRLPRPRPRPWDRPRP | -0.167
119 | RRIRERPPRLPRPRPRPVQYPRP | -0.418
120 | RRIRIRPPRLPRPRPRPTKRPRP | -0.0508
121 | RRIRYRPPRLPRPRPRPYKKPRP | -0.00195
122 | RRIRCRPPRLPRPRPRPFQPPRP | -0.281
123 | RRIRTRPPRLPRPRPRPRHLPRP | 0.318
124 | RRIRWRPPRLPRPRPRPVEFPRP | -0.177
125 | RRIRERPPRLPRPRPRPGSHPRP | -0.152

Row | Sequence | shrunken log2 fold change
126 | RRIRTRPPRLPRPRPRPARVPRP | 0.195
127 | RRIRCRPPRLPRPRPRPINNPRP | -0.633
128 | RRIRYRPPRLPRPRPRPDAWPRP | 0.0522
129 | RRIRMRPPRLPRPRPRPPSIPRP | 0.411
130 | RRIRDRPPRLPRPRPRPGVSPRP | 0.158
131 | RRIRDRPPRLPRPRPRPIFPPRP | 0.19
132 | RRIRWRPPRLPRPRPRPNHIPRP | -0.569
133 | RRIRLRPPRLPRPRPRPMAAPRP | 0.627
134 | RRIRFRPPRLPRPRPRPLDSPRP | -0.0455
135 | RRIRDRPPRLPRPRPRPPCHPRP | -0.363
136 | RRIRYRPPRLPRPRPRPQGEPRP | -0.325
137 | RRIRWRPPRLPRPRPRPFTEPRP | -0.478
138 | RRIRCRPPRLPRPRPRPTEMPRP | -0.102
139 | RRIRSRPPRLPRPRPRPNYFPRP | -0.828
140 | RRIRGRPPRLPRPRPRPGDVPRP | 0.347
141 | RRIRWRPPRLPRPRPRPKPQPRP | 0.391
142 | RRIRDRPPRLPRPRPRPTTQPRP | 0.831
143 | RRIRLRPPRLPRPRPRPWIPPRP | -0.0167
144 | RRIRFRPPRLPRPRPRPTPTPRP | 0.471
145 | RRIRNRPPRLPRPRPRPTEAPRP | 0.21
146 | RRIRLRPPRLPRPRPRPLRWPRP | 0.524
147 | RRIRRRPPRLPRPRPRPQYAPRP | 0.0794
148 | RRIRSRPPRLPRPRPRPLSMPRP | -0.115
149 | RRIRHRPPRLPRPRPRPFWRPRP | -0.0343
150 | RRIRIRPPRLPRPRPRPTWAPRP | 0.0207
